Experimental data reported in publication PMC6249546.

Molecular target: T1, His-EmrR (Chromobacterium violaceum ATCC 12472) (UniProt Q7P000)
T1 sequence: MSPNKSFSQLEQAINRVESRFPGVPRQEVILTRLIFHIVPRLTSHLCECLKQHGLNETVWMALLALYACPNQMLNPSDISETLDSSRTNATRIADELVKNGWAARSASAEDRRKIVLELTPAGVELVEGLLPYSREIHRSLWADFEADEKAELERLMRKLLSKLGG
Experiment: EMSA
Conditions: 32P-labelled PCR probes, 100-300 nM DTT-reduced His-EmrR, interaction buffer as in da Silva Neto 2012 and Previato-Mello 2017 (composition, pH …)

Sequence	binding
TTGGATCCGAAGGCCAGGCGCTGCATCTGGGCGGCGCCCACCCGAGCGCGCTGGAAAAACTGCTGTTCCCGCGGCTGGAAACCAGCCAGCTGCTGGGCGGCGGCAGCCAGCCGCTGCGGCTGACGCTGAGCTGGCAACAGGGTTGGGCGCAGATCGGCCTGTTCGAATGGACGGTGTGGCTGCTGCTGTCGCTGCTGCTGGGCCTGGGCATAGGCCTGGCCGGCTTCAGCTTCGTGCGCAGCAGCGACAGCTGCAGTAAT (double strand) [CV_0208 coding region]	binds more weakly
TTGGCACTGCAGCAAATAAGCCTGCCCGTGGCGGCGCCTCCCCCGCCGCCACTCTCCCTCCTTCCCCCGTCTCGCCGGCCCTTCGGCTGCCGCCGTCTACCGGCCGCCAATCTAACCCATTGTCATTTCGCCACACTTTTCGCCAGCATTTCATTAGCAAGGTTATTATTACTTGCAAAATAATACCGCACGTTACTAAAATGGCCGCATGAGTCCAAACAAGAAGCTTATA (double strand) [emrR promoter]	binds
TTGGCAGAGCTCCAATGATGCATGTCGGTCCGGACGTGATTAATCTGGTGATAATCACCCGGGTTATTATTCGAGTGAAAAAGCGCGGGCTCAGCCAAGCTTATA (double strand) [emrCAB promoter]	binds
